Experimental data as given in US20110144312A1 (Kyowa Kirin, published 2011).
Changes are numbered by the printed parent chain.

T1: human IL-10Rα on cells (human, UniProt Q13651 22-578)
T1 construct: Full-length entry with signal peptide; endogenous on PBMC and RPMI-8226 cells, transfected in EL-4 and CHO-K1 cells; also called IL-10R on RPMI-8226 cells; IL-10Rα on human PBMC, lymphocytes and monocytes
T1 sequence: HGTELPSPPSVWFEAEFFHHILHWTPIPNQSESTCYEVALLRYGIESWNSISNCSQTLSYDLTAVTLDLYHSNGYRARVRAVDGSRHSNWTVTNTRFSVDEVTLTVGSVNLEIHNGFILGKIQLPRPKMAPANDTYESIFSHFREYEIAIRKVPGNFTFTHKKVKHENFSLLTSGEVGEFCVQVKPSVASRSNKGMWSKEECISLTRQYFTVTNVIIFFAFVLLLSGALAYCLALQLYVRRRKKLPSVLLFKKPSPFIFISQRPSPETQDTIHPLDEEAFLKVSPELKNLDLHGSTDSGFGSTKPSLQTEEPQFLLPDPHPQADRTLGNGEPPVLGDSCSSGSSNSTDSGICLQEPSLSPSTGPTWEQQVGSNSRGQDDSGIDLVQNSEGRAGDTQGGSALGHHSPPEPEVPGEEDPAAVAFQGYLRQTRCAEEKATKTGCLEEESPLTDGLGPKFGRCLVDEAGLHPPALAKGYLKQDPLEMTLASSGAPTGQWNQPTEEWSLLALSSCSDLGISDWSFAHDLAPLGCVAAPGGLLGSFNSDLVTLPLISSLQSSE

T2: Biotin-SGSTYSIFSHFREYEIAIRKV-NH2 (human, N-terminal biotin, C-terminal amide (-NH2))
T2 peptide: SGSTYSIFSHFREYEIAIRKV

B1: 136C5 (antibody, V domains shown)
VH: EVQLVESGGGLVQPGGSLRLSCAASGFTFSSYSMNWVRQAPGKGLEWVSYISTGSSTIYYADSVKGRFTISRDNAKNSLYLQMNSLRDEDTAVYYCARENYYGSGSYEDYFDYWGQGTLVTVSS
VL: EIVLTQSPATLSLSPGERATLSCRASQSVSSYLAWYQQKPGQAPRLLIYDASNRATGIPARFSGSGSGTDFTLTISSLEPEDFAVYYCQQRSNWPIFTFGPGTKVDIK
notes: Hybridoma antibody, human IgG1, kappa light chain; also called human anti-human IL-10Rα monoclonal antibody 136C5; hybridoma deposit PTA-9131
B2: 136C8 (antibody, V domains shown)
VH: B1 VH with G54R
VL: B1 VL
notes: Hybridoma antibody, human IgG2, kappa light chain; also called human anti-human IL-10Rα monoclonal antibody 136C8; hybridoma deposit PTA-9132

Key:
[1] = target: T1, human IL-10Rα on cells; experiment: flow cytometry, RPMI-8226 cells pre-incubated with biotinylated human IL-10 (competitor)
Experimental: IL-10 Blocking Assay: To determine if the anti-human IL-10Rα antibodies were blocked by binding of IL-10 to the receptor on the cell surface, a flow cytometric protocol was used. In the flow cytometric assay, RPMI-8226 cells were washed and resuspended in staining buffer and then incubated with biotinylated human IL-10 or a negative control protein (R&D Systems) for 30 minutes on ice. The anti-IL-10Rα antibodies were then added to the cells for an additional 30 minutes. The cells were washed and incubated with anti-human IgG conjugated to PE (Southern Biotech Associates) for 30 minutes. After another wash, the cells were fixed with 1% paraformaldehyde and analyzed on a FACS Calibur. The fold reduction in antibody binding was determined using the geometric mean fluorescence intensity in the following formula: Fold reduction=geometric mean fluorescence intensity in the absence of IL-10/geometric mean fluorescence intensity binding in presence of IL-10.
Recombinant IL-10 binding to the IL-10R expressed by RPMI-8226 cells reduced binding of the anti-human IL-10Rα antibodies (FIG. 3A). The reduction in antibody binding was similar for all antibodies tested. […] The fold reduction in binding by IL-10 (Table 3) was determined by dividing the geo mean of the antibody binding in the absence of IL-10 by the geo mean in the presence of IL-10. […]

[2] = target: T2, Biotin-SGSTYSIFSHFREYEIAIRKV-NH2; experiment: ELISA, biotinylated peptide on Extravidin or Neutravidin plates
Experimental: Multiple ELISA methods were also employed to detect binding of anti-IL-10Rα antibodies to IL-10Rα, derived peptides. The biotinylated IL-10Rα derived peptides (SEQ ID NO. 86-87) were diluted to 1 μg/ml in TBS/BSA/0.05% Tween 20 and added to Extravidin or Neutravidin pre-coated ELISA plates (Pierce) for 2 hours at room temperature. After washing three times with TBS/BSA/0.05% Tween 20. The purified anti-human IL-10Rα antibodies were diluted in TBS/BSA/0.05% Tween 20 and added to the wells. The plates were incubated for 1 hour at room temperature. The plates were washed 3 times with TBS/0.05% Tween 20 and peroxidase-conjugated goat anti-human IgG (Fcγ specific), anti-rat IgG, or anti-mouse IgG detection antibodies (Jackson Immunoresearch) were added. Following 1 hour incubation at room temperature, the plates were washed and the TMB (Sigma) substrate was added and incubated at room temperature for 5 to 10 minutes. The reaction was stopped with H₂SO₄ (LabChem) and the optical density was measured at 450 nm using a microplate reader. An OD reading above background wells with no primary antibody is indicative of antibody binding to the peptides. […] The antibodies only bound the positive control biotinylated recombinant human IL-10Rα:hFc protein. […] Antibody binding was detected with species-specific anti-IgG-HRP secondary antibodies. […]

[3] = target: T3, cynomolgus macaque IL-10Rα extracellular domain fused to the Fc portion of human IgG1 (cynomolgus macaque); experiment: ELISA, coated cynomolgus IL-10Rα:hFc
T3 construct: The entry includes the signal peptide; also called cynomolgus IL-10Rα:hFc; cyIL-10Rα
Description: Titration of anti-IL-10Rα antibodies binding to coated chimp or cynomolgus IL-10Rα:hFc. Binding was detected with anti-human kappa-HRP, anti-mouse IgG-HRP, or anti-rat IgG-HRP. Different anti-rat-IgG HRP and anti-mouse IgG antibodies were used to generate the data in panels A and B. The nature of these secondary antibodies can affect the results and lead to different maximum binding (BMAX). The BMAX from these studies are described in Table 5.
IL-10Rα Specific Antibody Detection ELISA: Antibody titers, specificity, and production by hybridomas were determined by ELISA. In brief, 96 well flat bottom Maxisorb plates were coated with 50 μl of hIL-10Rα (R&D Systems, Minneapolis, Minn.) at 1 μg/ml in carbonate buffer (pH 9.4) overnight at 4° C. or at 37° C. for 1 hour. After washing three times with PBS/0.05% Tween 20, plates were blocked with Superblock blocking buffer in TBS (Pierce) at room temperature for 30 minutes. The serum, supernatant, or purified antibody was diluted in blocking buffer, added to the wells, and the plates were incubated for 1 hour at room temperature. The plates were washed 3 times with PBS/0.05% Tween 20 and peroxidase-conjugated goat anti-human IgG (Fcγ specific), anti-rat IgG, or anti-mouse IgG detection antibodies (Jackson Immunoresearch) were added at a dilution of 1:5000. Multiple lots of anti-rat and anti-mouse IgG antibodies were used in different assays. […] Following a 1 hour incubation at room temperature, the plates were washed and the TMB (Sigma) substrate was added and incubated at room temperature for 5 to 10 minutes. The reaction was stopped with H₂SO₄ (LabChem) and the optical density was measured at 450 nm by a microplate reader. A second ELISA protocol using soluble human, chimp and cynomolgus IL-10Rα:hFc recombinant proteins as the coating antigens was also employed. In this assay, binding of specific human IgG were detected with a peroxidase labeled sheep anti-human kappa antibody (The Binding Site, Birmingham, UK).

Row | Binder | Fold Reduction by IL-10 [1] [fold] | binding result [2] | BMAX [3] [OD]
1 | B1 | 1.88 | no binding (tested: 1 µg/ml peptide) | 1.64
2 | B2 | 1.98 | – | 1.66
